Reference: paper PMC4755594, “Structure of a Bacterial Virus DNA-Injection Protein Complex Reveals a Decameric Assembly with a Constricted Molecular Channel” (PLoS ONE, 2016)

Target: the molecule itself
Test: SEC; refolded gp12 after Ni-NTA on Hiload Superdex 200; decamer peak at 54.6 ml, monomer peak at 73.6 ml; pooled decamer fractions run again

B1: bacteriophage Sf6 DNA-injection protein gp12 (natural protein, UniProt Q716G3 1-431, looked up)
chain: MATWQGSNGGLLAGIGGVNSNAPSVNDIGNTLQLIRQNNDIERSGANNVGLTALQGLSGIAGVFQQEKQARRQKEFQQAYANAYASGDRGALRQLATQYPDQIESVRKGMGFIDEDQRNSIGTLAAGARLAASSPEAMQSWLQNNANELARVGVDPNNVAQMYQQNPSGFGEFVDHLGMAALGPIDYFNVQDKMAGREIDRGRLAETIRSNKAGEALTVRGQDIQIRGQNISAQNAALSREIQRAELQEKALDRQIARESNQLKLEELKQKQADVRQKADIARADRQAAAQGAVDTFSTALDSLNEIEQSPGLSKAVGIRSAFPTVPGSDAANFEARLDTFKAQTFLPMVQSLKGMGALSDAEGKKLSDAVGALSPKMSEKAFRDSIGKIRNQLESKLSTVKKQFDYQEPVQNTPVQQPTTGSNFSSLWGD
notes: gp12 (product of gene 12) of bacteriophage Sf6, 431 residues, 46.5 kDa; ortholog of phage P22 gp20; The same preparation gave a monomer peak and a decamer peak on SEC; the assembled form has 10 copies of the chain; also called Sf6 gp12; gp12 monomer
For B1, the “stoichiometry N” value was 10.
